Assay results from patent US20200390811A1.

Tested on: RISR-RIAD peptide with myc and ddk (FLAG) tags, expressed in T cells
Sequence (chain, as listed by the source): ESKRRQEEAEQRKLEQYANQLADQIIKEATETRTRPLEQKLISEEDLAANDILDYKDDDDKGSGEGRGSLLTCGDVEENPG

Protein kinase A (PKA), RI regulatory subunit
phosphorylation of Csk-S364 and Lck-Y505 (blot, FIG. 2): RISR-RIAD expression prevented phosphorylation of Csk-S364 and Lck-Y505
